Reference: publication PMC11419001 (bioRxiv, 2024)

Molecular target: ribosomal protein uS10 of the stalled 70S ribosome (E. coli, UniProt P0A7R5 1-103)
Experiment: cryo-EM structure

binding result: binds
B1: HrpA (E. coli DExH-box RNA helicase), preparation for cryo-EM (enzyme)
chain: MTEQQKLTFTALQQRLDSLMLRDRLRFSRRLHGVKKVKNPDAQQAIFQEMAKEIDQAAGKVLLREAARPEITYPDNLPVSQKKQDILEAIRDHQVVIVAGETGSGKTTQLPKICMELGRGIKGLIGHTQPRRLAARTVANRIAEELKTEPGGCIGYKVRFSDHVSDNTMVKLMTDGILLAEIQQDRLLMQYDTIIIDEAHERSLNIDFLLGYLKELLPRRPDLKIIITSATIDPERFSRHFNNAPIIEVSGRTYPVEVRYRPIVEEADDTERDQLQAIFDAVDELSQESHGDILIFMSGEREIRDTADALNKLNLRHTEILPLYARLSNSEQNRVFQSHSGRRIVLATNVAETSLTVPGIKYVIDPGTARISRYSYRTKVQRLPIEPISQASANQRKGRCGRVSEGICIRLYSEDDFLSRPEFTDPEILRTNLASVILQMTALGLGDIAAFPFVEAPDKRNIQDGVRLLEELGAITTDEQASAYKLTPLGRQLSQLPVDPRLARMVLEAQKHGCVREAMIITSALSIQDPRERPMDKQQASDEKHRRFHDKESDFLAFVNLWNYLGEQQKALSSNAFRRLCRTDYLNYLRVREWQDIYTQLRQVVKELGIPVNSEPAEYREIHIALLTGLLSHIGMKDADKQEYTGARNARFSIFPGSGLFKKPPKWVMVAELVETSRLWGRIAARIDPEWVEPVAQHLIKRTYSEPHWERAQGAVMATEKVTVYGLPIVAARKVNYSQIDPALCRELFIRHALVEGDWQTRHAFFRENLKLRAEVEELEHKSRRRDILVDDETLFEFYDQRISHDVISARHFDSWWKKVSRETPDLLNFEKSMLIKEGAEKISKLDYPNFWHQGNLKLRLSYQFEPGADADGVTVHIPLPLLNQVEESGFEWQIPGLRRELVIALIKSLPKPVRRNFVPAPNYAEAFLGRVKPLELPLLDSLERELRRMTGVTVDREDWHWDQVPDHLKITFRVVDDKNKKLKEGRSLQDLKDALKGKVQETLSAVADDGIEQSGLHIWSFGQLPESYEQKRGNYKVKAWPALVDERDSVAIKLFDNPLEQKQAMWNGLRRLLLLNIPSPIKYLHEKLPNKAKLGLYFNPYGKVLELIDDCISCGVDKLIDANGGPVWTEEGFAALHEKVRAELNDTVVDIAKQVEQILTAVFNINKRLKGRVDMTMALGLSDIKAQMGGLVYRGFVTGNGFKRLGDTLRYLQAIEKRLEKLAVDPHRDRAQMLKVENVQQAWQQWINKLPPARREDEDVKEIRWMIEELRVSYFAQQLGTPYPISDKRILQAMEQISG
